Measured values from the emibetuzumab library of Makowski et al. (2022).

B1: VH:VL chains; a variant is named by its letters at X, in order (parent)
chain 1: QVQLVQSGAEVKKPGASVKVSCKASGYTFTDYXMHWVRQAPGQGLEWMGXVNPNXXXTTYNQKFEGRVTMTTDTSTSTAYMELRSLRSDDTAVYYCARXNXLDXWGQGTTVTVSS
chain 2: DIQMTQSPSSLSASVGDRVTITCSVSSSVSSIYLHWYQQKPGKAPKLLIYSTSNLASGVPSRFSGSGSGTDFTLTISSLQPEDFATYYCQVYSGYPLTFGGGTKVEIK

Variants of: B1
Assay: yeast display scFab, FACS + sequencing
Outline: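 For the non-specific binding call, a heavy-chain CDR mutant scFab library on the yeast surface was FACS-sorted and samples from two replicates were deep sequenced. Cells were labelled with anti-Myc and either biotinylated ovalbumin (260 μg/mL in PBSB, 3 h, room temperature) or soluble membrane proteins (130 μg/mL, 20 min on ice), with gates on the top 25% and bottom 10% of binders. With membrane protein and ovalbumin samples pooled, a sequence in ≥3 of 4 positive samples and no negatives was scored positive, and the converse rule scored negatives.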
With YRRGSAVD the non-specific binding call was “binds”.
For YRRGSAVY, the non-specific binding call was “binds”.
With YRRGSAVA the non-specific binding call was “binds”.
With FRRGSSVV the non-specific binding call was “binds”.
For FRRGGAGD, the non-specific binding call was “binds”.
With FRRGGAGY the non-specific binding call was “binds”.
For YRRRGFAV, the non-specific binding call was “binds”.
For YRRRGFAA, the non-specific binding call was “binds”.
In the case of VRRGGAAS, the non-specific binding call is reported as “binds”.
For YRRGGYVD, the non-specific binding call was “binds”.
In the case of YRRGGFVV, the non-specific binding call is reported as “binds”.
For YRRRGDGD, the non-specific binding call was “binds”.
For YRRRGDGY, the non-specific binding call was “binds”.
For YRRRGDGV, the non-specific binding call was “binds”.
In the case of FRRGGASA, the non-specific binding call is reported as “binds”.
For YRRRGSVA, the non-specific binding call was “binds”.
For YRRRGSVS, the non-specific binding call was “binds”.
With YRRRGSVF the non-specific binding call was “binds”.
For YRRRGSVD, the non-specific binding call was “binds”.
With YRRRGSVV the non-specific binding call was “binds”.
With YRRKGAAY the non-specific binding call was “binds”.
For VRRGGALD, the non-specific binding call was “binds”.
For YRRRGSLV, the non-specific binding call was “binds”.
For YRRRGSLS, the non-specific binding call was “binds”.
In the case of YRRRGSLD, the non-specific binding call is reported as “binds”.
For YRRRGSLA, the non-specific binding call was “binds”.
With YRRRGSLF the non-specific binding call was “binds”.
In the case of YRRRGSLY, the non-specific binding call is reported as “binds”.
With YRRGGAWS the non-specific binding call was “binds”.
In the case of YRRGGAWV, the non-specific binding call is reported as “binds”.
In the case of YRRGGAWA, the non-specific binding call is reported as “binds”.
For YRRGGAWD, the non-specific binding call was “binds”.
With YRRGGAWY the non-specific binding call was “binds”.
In the case of VRRGGAWV, the non-specific binding call is reported as “binds”.
With DRRKAFSA the non-specific binding call was “binds”.
For FRRGGAVD, the non-specific binding call was “binds”.
With FRRGGAVV the non-specific binding call was “binds”.
In the case of ARRGSDVA, the non-specific binding call is reported as “no binding”.
In the case of YRRGSFGA, the non-specific binding call is reported as “binds”.
In the case of YRRGSSVF, the non-specific binding call is reported as “binds”.
For YRRGSSVS, the non-specific binding call was “binds”.
In the case of YRRGSSVV, the non-specific binding call is reported as “binds”.
For YRRGGFGV, the non-specific binding call was “binds”.
In the case of YRRGGFGA, the non-specific binding call is reported as “binds”.
With YRRGTSVD the non-specific binding call was “binds”.
For VRRKDFLA, the non-specific binding call was “binds”.
In the case of YRRKGSSA, the non-specific binding call is reported as “binds”.
With YRRKGSSS the non-specific binding call was “binds”.
With YRRGGYAV the non-specific binding call was “binds”.
With YRRKGSGA the non-specific binding call was “binds”.
For YRRKGSGY, the non-specific binding call was “binds”.
In the case of VRRRGAGD, the non-specific binding call is reported as “binds”.
In the case of VRRRGAGV, the non-specific binding call is reported as “binds”.
With FRRRGAVD the non-specific binding call was “binds”.
In the case of FRRRGAVA, the non-specific binding call is reported as “binds”.
With YRRGGSVD the non-specific binding call was “binds”.
With YRRGGSVS the non-specific binding call was “binds”.
With YRRGGSVF the non-specific binding call was “binds”.
For YRRGGSVA, the non-specific binding call was “binds”.
In the case of FRRRGSAD, the non-specific binding call is reported as “binds”.
With FRRRGSAA the non-specific binding call was “binds”.
In the case of YRRRGAAF, the non-specific binding call is reported as “binds”.
With YRRRGAAS the non-specific binding call was “binds”.
For YRRRGAAA, the non-specific binding call was “binds”.
For YRRRGAAY, the non-specific binding call was “binds”.
For YRRRGAAD, the non-specific binding call was “binds”.
With YRRGSAWA the non-specific binding call was “binds”.
In the case of VRRGGSGS, the non-specific binding call is reported as “binds”.
For VRRGGSGD, the non-specific binding call was “binds”.
For FRRRGALD, the non-specific binding call was “binds”.
In the case of YRRRGVAA, the non-specific binding call is reported as “binds”.
For YRRRGVAD, the non-specific binding call was “binds”.
In the case of FRRGGAWV, the non-specific binding call is reported as “binds”.
In the case of FRRGGAWD, the non-specific binding call is reported as “binds”.
In the case of FRRGGAWY, the non-specific binding call is reported as “binds”.
In the case of VRRGSSVV, the non-specific binding call is reported as “binds”.
With VRRGSSVS the non-specific binding call was “binds”.
With YRRGGSSA the non-specific binding call was “binds”.
In the case of VRRRGAVV, the non-specific binding call is reported as “binds”.
With VRRRGSAF the non-specific binding call was “binds”.
With YRRKGDAD the non-specific binding call was “binds”.
For YRRRGAWV, the non-specific binding call was “binds”.
For YRRRGAWD, the non-specific binding call was “binds”.
In the case of YRRRGAWA, the non-specific binding call is reported as “binds”.
With YRRRGAWF the non-specific binding call was “binds”.
In the case of YRRRGAWS, the non-specific binding call is reported as “binds”.
For YRRRGFVA, the non-specific binding call was “binds”.
For YRRRGFVV, the non-specific binding call was “binds”.
In the case of YRRRGFVD, the non-specific binding call is reported as “binds”.
With VRRGSSLF the non-specific binding call was “binds”.
In the case of DRRRGSGA, the non-specific binding call is reported as “binds”.
In the case of YRRGGVGA, the non-specific binding call is reported as “binds”.
With YRRGGVGV the non-specific binding call was “binds”.
For YRRRGSAF, the non-specific binding call was “binds”.
For YRRRGSAD, the non-specific binding call was “binds”.
In the case of YRRRGSAS, the non-specific binding call is reported as “binds”.
With YRRGGASD the non-specific binding call was “binds”.
In the case of YRRGGASA, the non-specific binding call is reported as “binds”.
For ARRRGAAA, the non-specific binding call was “binds”.
With YRRRGFGS the non-specific binding call was “binds”.
With YRRRGFGD the non-specific binding call was “binds”.
In the case of YRRRGFGV, the non-specific binding call is reported as “binds”.
For YRRRGFGA, the non-specific binding call was “binds”.
In the case of YRRRGFGY, the non-specific binding call is reported as “binds”.
With YRRRDSSA the non-specific binding call was “binds”.
In the case of FRRGGSAF, the non-specific binding call is reported as “binds”.
For FRRGGSAD, the non-specific binding call was “binds”.
In the case of FRRGGSAA, the non-specific binding call is reported as “binds”.
With FRRGSAVA the non-specific binding call was “binds”.
With YRRGSFAA the non-specific binding call was “binds”.
With FRRRGAWA the non-specific binding call was “binds”.
In the case of FRRRGAWY, the non-specific binding call is reported as “binds”.
For YRRKGSVD, the non-specific binding call was “binds”.
For ARRGGSVD, the non-specific binding call was “binds”.
For YRRGGAGV, the non-specific binding call was “binds”.
For YRRGGAGY, the non-specific binding call was “binds”.
In the case of YRRGGAGF, the non-specific binding call is reported as “binds”.
For YRRKGAGD, the non-specific binding call was “binds”.
In the case of SRRGSASS, the non-specific binding call is reported as “binds”.
For FRRGGAAS, the non-specific binding call was “binds”.
For YRRGSALY, the non-specific binding call was “binds”.
In the case of YRRGSALS, the non-specific binding call is reported as “binds”.
In the case of SRRRGAWY, the non-specific binding call is reported as “binds”.
With YRRGGSAV the non-specific binding call was “binds”.
For YRRGGSAA, the non-specific binding call was “binds”.
In the case of YRRKGASV, the non-specific binding call is reported as “binds”.
For YRRGGSLS, the non-specific binding call was “binds”.
With FRRGGSGV the non-specific binding call was “binds”.
In the case of FRRGGSGS, the non-specific binding call is reported as “binds”.
For FRRRDAAF, the non-specific binding call was “binds”.
